Earlier results as cited in PMC3962080.

Molecular target: human serum albumin (Homo sapiens) (UniProt P02768)

## G148-ABD albumin-binding domain (from UniProt P06654)
  Kd: 5 nM
